Measurements: the Human Domainome abundance scans (Beltran et al. 2025)
± gives the uncertainty stated by the source.

experiment: abundance fitness (aPCA) (normalised: wild type 0, dead -1); higher = more abundant; growth selection in yeast, the domain comes from the species named; details: Homo sapiens

| Substance | abundance fitness |
| --- | --- |
| DnaJ homolog subfamily B member 1 P58I, P25685 | -0.256 ± 0.16 |
| DnaJ homolog subfamily B member 1 A51G, P25685 | -0.628 ± 0.061 |
| DnaJ homolog subfamily B member 1 Y6E, P25685 | -0.683 ± 0.097 |
| DnaJ homolog subfamily B member 1 K60S, P25685 | -0.216 ± 0.072 |
| DnaJ homolog subfamily B member 1 D4R, P25685 | -0.151 ± 0.17 |
| DnaJ homolog subfamily B member 1 E19F, P25685 | -1.06 ± 0.08 |
| DnaJ homolog subfamily B member 1 H32I, P25685 | -0.246 ± 0.12 |
| DnaJ homolog subfamily B member 1 E50P, P25685 | -0.885 ± 0.18 |
| DnaJ homolog subfamily B member 1 Y24S, P25685 | -0.464 ± 0.055 |
| DnaJ homolog subfamily B member 1 H32P, P25685 | -0.199 ± 0.14 |
| DnaJ homolog subfamily B member 1 S56N, P25685 | -0.343 ± 0.15 |
| DnaJ homolog subfamily B member 1 P58C, P25685 | -0.256 ± 0.22 |
| DnaJ homolog subfamily B member 1 A12P, P25685 | -0.108 ± 0.12 |
| DnaJ homolog subfamily B member 1 R59T, P25685 | 0.07 ± 0.1 |
| DnaJ homolog subfamily B member 1 Y31Q, P25685 | -0.181 ± 0.12 |
| DnaJ homolog subfamily B member 1 I48S, P25685 | -0.387 ± 0.074 |
| DnaJ homolog subfamily B member 1 R30G, P25685 | -0.056 ± 0.11 |
| DnaJ homolog subfamily B member 1 A41H, P25685 | -0.24 ± 0.096 |
| DnaJ homolog subfamily B member 1 Y31I, P25685 | -0.259 ± 0.052 |
| DnaJ homolog subfamily B member 1 D17M, P25685 | -0.06 ± 0.089 |
| DnaJ homolog subfamily B member 1 R26M, P25685 | -0.121 ± 0.13 |
| DnaJ homolog subfamily B member 1 Y52S, P25685 | -0.332 ± 0.058 |
| DnaJ homolog subfamily B member 1 A15Y, P25685 | -1 ± 0.16 |
| DnaJ homolog subfamily B member 1 P33R, P25685 | -0.06 ± 0.078 |
| DnaJ homolog subfamily B member 1 D34N, P25685 | -0.039 ± 0.17 |
| DnaJ homolog subfamily B member 1 H32K, P25685 | -0.777 ± 0.16 |

| Substance | abundance fitness |
| --- | --- |
| DnaJ homolog subfamily B member 1 Y5A, P25685 | -0.316 ± 0.13 |
| DnaJ homolog subfamily B member 1 L55C, P25685 | -0.788 ± 0.2 |
| DnaJ homolog subfamily B member 1 Y6V, P25685 | -1.18 ± 0.086 |
| DnaJ homolog subfamily B member 1 H32W, P25685 | -0.155 ± 0.075 |
| DnaJ homolog subfamily B member 1 I20G, P25685 | -0.9 ± 0.071 |
| DnaJ homolog subfamily B member 1 Q27D, P25685 | 0.003 ± 0.15 |
| DnaJ homolog subfamily B member 1 E42N, P25685 | 0.027 ± 0.13 |
| DnaJ homolog subfamily B member 1 I63F, P25685 | -0.212 ± 0.26 |
| DnaJ homolog subfamily B member 1 E38A, P25685 | -0.29 ± 0.26 |
| DnaJ homolog subfamily B member 1 T8P, P25685 | -0.333 ± 0.067 |
| DnaJ homolog subfamily B member 1 Y6A, P25685 | -0.991 ± 0.18 |
| DnaJ homolog subfamily B member 1 L55M, P25685 | -0.464 ± 0.11 |
| DnaJ homolog subfamily B member 1 Y6S, P25685 | -0.817 ± 0.072 |
| DnaJ homolog subfamily B member 1 A28F, P25685 | 0.079 ± 0.14 |
| DnaJ homolog subfamily B member 1 K44D, P25685 | -0.356 ± 0.15 |
| DnaJ homolog subfamily B member 1 E50L, P25685 | -0.026 ± 0.052 |
| DnaJ homolog subfamily B member 1 I48P, P25685 | -0.561 ± 0.1 |
| DnaJ homolog subfamily B member 1 P39K, P25685 | 0.027 ± 0.14 |
| DnaJ homolog subfamily B member 1 L55G, P25685 | -0.687 ± 0.081 |
| DnaJ homolog subfamily B member 1 G10P, P25685 | -0.926 ± 0.21 |
| DnaJ homolog subfamily B member 1 Y52W, P25685 | 0.005 ± 0.074 |
| DnaJ homolog subfamily B member 1 E43D, P25685 | -0.153 ± 0.14 |
| DnaJ homolog subfamily B member 1 K44Y, P25685 | -0.268 ± 0.1 |
| DnaJ homolog subfamily B member 1 D65R, P25685 | -0.163 ± 0.1 |
| DnaJ homolog subfamily B member 1 I63E, P25685 | 0.092 ± 0.1 |
